Measurements as given in paper doi:10.1101/094961 (bioRxiv, 2017).

Molecular target: RNAP β' subunit with 6his tag (rpoC-6his), in purified δ-containing RNAP (B. subtilis, UniProt P37871 1-1199)
Experiment: cross-linking

RNAP β' subunit with 6his tag (rpoC-6his), in purified δ-containing RNAP, sequence (P37871 whole entry, stated change not applied): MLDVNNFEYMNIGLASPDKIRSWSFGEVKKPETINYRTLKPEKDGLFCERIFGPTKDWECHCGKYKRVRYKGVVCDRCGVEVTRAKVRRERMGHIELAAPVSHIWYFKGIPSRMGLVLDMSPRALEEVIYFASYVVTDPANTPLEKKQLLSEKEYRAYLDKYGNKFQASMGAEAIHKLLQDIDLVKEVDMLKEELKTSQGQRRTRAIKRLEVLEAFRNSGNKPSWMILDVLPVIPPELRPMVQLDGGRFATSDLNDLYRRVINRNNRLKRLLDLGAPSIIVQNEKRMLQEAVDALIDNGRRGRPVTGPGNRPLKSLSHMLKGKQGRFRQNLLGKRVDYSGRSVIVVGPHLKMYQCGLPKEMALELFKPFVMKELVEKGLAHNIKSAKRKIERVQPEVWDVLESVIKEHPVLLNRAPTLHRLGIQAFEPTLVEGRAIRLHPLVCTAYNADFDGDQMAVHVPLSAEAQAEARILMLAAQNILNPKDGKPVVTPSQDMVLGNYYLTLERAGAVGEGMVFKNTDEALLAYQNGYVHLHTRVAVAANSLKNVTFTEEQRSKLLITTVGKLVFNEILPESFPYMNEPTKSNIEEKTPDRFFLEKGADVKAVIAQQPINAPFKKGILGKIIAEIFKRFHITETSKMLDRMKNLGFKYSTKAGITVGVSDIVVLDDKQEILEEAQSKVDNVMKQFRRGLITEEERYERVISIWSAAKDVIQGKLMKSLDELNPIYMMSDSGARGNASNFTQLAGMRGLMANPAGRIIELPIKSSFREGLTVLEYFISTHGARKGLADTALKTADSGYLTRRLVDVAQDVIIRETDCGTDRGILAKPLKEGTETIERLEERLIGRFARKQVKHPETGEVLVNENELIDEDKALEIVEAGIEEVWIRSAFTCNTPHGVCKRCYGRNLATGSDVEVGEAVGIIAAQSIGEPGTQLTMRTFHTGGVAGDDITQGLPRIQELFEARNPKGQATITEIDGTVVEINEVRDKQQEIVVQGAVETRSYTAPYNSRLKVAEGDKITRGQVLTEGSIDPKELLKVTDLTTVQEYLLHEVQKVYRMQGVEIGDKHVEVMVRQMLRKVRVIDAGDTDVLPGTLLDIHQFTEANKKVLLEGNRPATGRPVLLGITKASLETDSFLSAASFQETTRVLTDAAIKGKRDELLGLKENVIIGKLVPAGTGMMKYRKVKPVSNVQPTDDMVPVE

B1: δ subunit (RpoE) of RNA polymerase (natural protein, UniProt P12464 1-173, looked up)
chain: MGIKQYSQEELKEMALVEIAHELFEEHKKPVPFQELLNEIASLLGVKKEELGDRIAQFYTDLNIDGRFLALSDQTWGLRSWYPYDQLDEETQPTVKAKKKKAKKAVEEDLDLDEFEEIDEDDLDLDEVEEELDLEADDFDEEDLDEDDDDLEIEEDIIDEDDEDYDDEEEEIK
  binding result: binds
